T1: Ron (CD136) (UniProt Q04912 25-957, limits assumed)
T1 sequence (looked up): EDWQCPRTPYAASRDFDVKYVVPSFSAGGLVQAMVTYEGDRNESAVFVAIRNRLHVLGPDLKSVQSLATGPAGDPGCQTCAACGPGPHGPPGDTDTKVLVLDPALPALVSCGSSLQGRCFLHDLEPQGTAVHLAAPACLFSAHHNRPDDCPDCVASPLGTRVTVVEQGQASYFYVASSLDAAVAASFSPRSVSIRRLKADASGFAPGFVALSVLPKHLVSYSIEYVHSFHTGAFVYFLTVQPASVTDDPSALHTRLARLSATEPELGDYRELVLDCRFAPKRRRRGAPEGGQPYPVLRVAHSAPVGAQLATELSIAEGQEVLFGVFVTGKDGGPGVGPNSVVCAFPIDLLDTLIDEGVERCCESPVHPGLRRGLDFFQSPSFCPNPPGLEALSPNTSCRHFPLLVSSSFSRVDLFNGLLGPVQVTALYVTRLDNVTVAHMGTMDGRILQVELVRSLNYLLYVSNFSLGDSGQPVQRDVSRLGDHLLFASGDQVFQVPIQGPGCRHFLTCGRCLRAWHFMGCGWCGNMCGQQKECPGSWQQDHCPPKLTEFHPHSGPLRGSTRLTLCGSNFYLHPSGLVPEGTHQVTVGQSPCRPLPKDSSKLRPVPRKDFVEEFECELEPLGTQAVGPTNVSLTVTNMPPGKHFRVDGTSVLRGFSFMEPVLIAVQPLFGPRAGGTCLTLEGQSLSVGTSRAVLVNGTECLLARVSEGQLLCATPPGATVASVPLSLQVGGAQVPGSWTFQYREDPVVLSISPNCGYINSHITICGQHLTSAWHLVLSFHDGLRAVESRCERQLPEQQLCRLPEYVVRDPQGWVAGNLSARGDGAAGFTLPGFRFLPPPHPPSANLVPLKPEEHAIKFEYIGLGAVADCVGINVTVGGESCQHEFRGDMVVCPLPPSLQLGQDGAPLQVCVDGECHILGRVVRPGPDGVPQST

T2: Semaphorin 3a (UniProt Q14563 21-771, limits assumed)
T2 sequence (looked up): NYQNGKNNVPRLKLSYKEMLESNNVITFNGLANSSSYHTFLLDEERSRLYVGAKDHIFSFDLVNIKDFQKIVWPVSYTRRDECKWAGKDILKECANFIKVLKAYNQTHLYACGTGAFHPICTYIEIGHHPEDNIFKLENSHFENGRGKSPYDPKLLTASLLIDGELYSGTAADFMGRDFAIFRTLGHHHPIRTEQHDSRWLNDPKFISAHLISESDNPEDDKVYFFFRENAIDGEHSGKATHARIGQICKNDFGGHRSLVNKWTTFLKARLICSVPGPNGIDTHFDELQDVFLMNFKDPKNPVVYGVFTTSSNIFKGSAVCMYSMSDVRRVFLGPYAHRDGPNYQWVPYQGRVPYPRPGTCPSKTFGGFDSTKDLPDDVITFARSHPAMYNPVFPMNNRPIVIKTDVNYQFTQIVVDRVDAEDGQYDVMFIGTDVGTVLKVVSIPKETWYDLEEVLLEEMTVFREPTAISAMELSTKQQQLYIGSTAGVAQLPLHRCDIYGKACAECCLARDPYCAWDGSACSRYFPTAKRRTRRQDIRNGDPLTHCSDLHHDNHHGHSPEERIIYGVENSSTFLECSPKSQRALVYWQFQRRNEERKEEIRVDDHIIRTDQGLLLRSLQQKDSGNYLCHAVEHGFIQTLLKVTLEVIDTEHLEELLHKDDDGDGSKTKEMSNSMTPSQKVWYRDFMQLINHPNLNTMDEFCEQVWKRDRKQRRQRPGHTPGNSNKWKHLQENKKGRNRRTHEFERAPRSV

B1: Compound E, [177Lu]-Compound C-anti-EGFR-cMET conjugate (bispecific antibody, V domains shown)
VH 1: QVQLVQSGAEVKKPGSSVKVSCKASGGTFSDNDFSWVRQAPGQGLEWMGAIVAVFRTETYAQKFQDRVKITADISTRTTYMELSSLRSEDTAVYYCARRLMSAISGPGAPLLMWGQGTLVTVSS
VL 1: QSALTQPRSVSGSPGQSVTISCTGTSSDVGGYNYVSWYQQHPGKAPKLMIYDVSKRPSGVPDRFSGSKSGNTASLTISGLQAEDEADYYCSSYTSSDTLEIFGGGTKLTVL
VH 2: QVQLVQSGAEVKKPGASVKVSCKASGYTFTDYYIHWVRQATGQGLEWMGWMNPNSGNTGYAQKFQGRVTMTRDTSISTAYMELSSLRSEDTAVYYCARGQGYTHSWGQGTMVTVSS
VL 2: DIQMTQSPSTLSASVGDRVTITCRASEGIYHWLAWYQQKPGKAPKLLIYKASSLASGVPSRFSGSGSGTEFTLTISSLQPDDFATYYCQQYSNYPPTFGGGTKLEIK
modifications: 177Lu-DOTA chelate-linker (Compound C) on lysine side chains, sites not stated; 177Lu-DOTA chelate-linker (Compound C) on lysine side chains, sites not stated; chelate-to-antibody ratio 5.3 for the whole antibody
notes: also called [177Lu]-DOTA-anti-EGFR-cMET
B2: RAA22 IgG (antibody, V domains shown)
VH: QVQLVQSGAEVKKPGSSVKVSCKASGGTFSDNDFSWVRQAPGQGLEWMGAIVAVFRTETYAQKFQDRVKITADISTRTTYMELSSLRSEDTAVYYCARRLMSAISGPGAPLLMWGQGTLVTVSS
VL: QSALTQPRSVSGSPGQSVTISCTGTSSDVGGYNYVSWYQQHPGKAPKLMIYDVSKRPSGVPDRFSGSKSGNTASLTISGLQAEDEADYYCSSYTSSDTLEIFGGGTKLTVL
notes: also called anti-EGFR antibody clone RAA22
B3: B09-57 IgG (antibody, V domains shown)
VH: QVQLVQSGAEVKKPGASVKVSCKASGYTFTDYYIHWVRQATGQGLEWMGWMNPNSGNTGYAQKFQGRVTMTRDTSISTAYMELSSLRSEDTAVYYCARGQGYTHSWGQGTMVTVSS
VL: DIQMTQSPSTLSASVGDRVTITCRASEGIYHWLAWYQQKPGKAPKLLIYKASSLASGVPSRFSGSGSGTEFTLTISSLQPDDFATYYCQQYSNYPPTFGGGTKLEIK
notes: also called B09-GL; anti-cMET antibody

Legend:
[1] = biological target: T3, EGFR and cMET co-expressed on the surface of tumour cell lines (HCC827, HT29, H441, H1975) (UniProt P00533 25-1210; P08581 25-1390); assay: saturation radioligand binding on HCC827 cells, 4 C, specific binding (4 µM cold antibody for non-specific), single-site fit
T3 construct: whole, on cells; Target of the bispecific molecules on cells that carry both receptors; the cell line of each value stands under assay; also called EGFR and c-MET expressing cell line; EGFR and/or cMET expressing cell lines
Procedure: (§1) The purpose of this assay was to ensure that the radioimmunoconjugates maintained the binding characteristics of the native antibody in EGFR and/or cMET expressing cell lines including HT29, H441, HT29, HCC827, and H1975. One day prior to the experiment, cells (1.5-2×10⁵) were seeded in 48-well microplates in 500 μL supplemented medium. At the start of the assay, cells were washed with PBS once and then treated with increasing concentrations of Compound E (0.05 nM to 100 nM) in the absence and presence of 4 μM cold antibody [total binding (TB) and non-specific binding (NSB) respectively]. Plates were incubated at 4° C. for about 3 hours with mild shaking. Following incubation, the cells were washed twice with PBS and were then lysed with 1% Triton-X-100. The lysates were transferred to gamma counting tubes and run along with Compound E standards on the Wizard 1470 gamma counter to determine the amount of radioactivity in counts per minute (CPM) for each lysate. The remaining lysate from each well (25 μL) was used for analyzing the protein content using a standard protein quantification assay.

[2] = biological target: T3, EGFR and cMET co-expressed on the …; assay: saturation radioligand binding on H441 cells, 4 C, specific binding (4 µM cold antibody for non-specific), single-site fit
Procedure: as §1

[3] = biological target: T3, EGFR and cMET co-expressed on the …; assay: saturation radioligand binding on HT29 cells, 4 C, specific binding (4 µM cold antibody for non-specific), single-site fit
Procedure: as §1

[4] = biological target: T3, EGFR and cMET co-expressed on the …; assay: saturation radioligand binding on H1975 cells, 4 C, specific binding (4 µM cold antibody for non-specific), single-site fit
Procedure: as §1

[5] = biological target: T4, cynomolgus monkey cMET (recombinant, soluble monomeric) (cynomolgus monkey, UniProt A0M8R7 25-932 (Papio anubis entry)); assay: SPR (BIAcore T200), antibody captured on anti-human IgG, soluble antigen as analyte
T4 construct: also called cyno cMET
T4 sequence (A0M8R7 25-932 S170N/I621T): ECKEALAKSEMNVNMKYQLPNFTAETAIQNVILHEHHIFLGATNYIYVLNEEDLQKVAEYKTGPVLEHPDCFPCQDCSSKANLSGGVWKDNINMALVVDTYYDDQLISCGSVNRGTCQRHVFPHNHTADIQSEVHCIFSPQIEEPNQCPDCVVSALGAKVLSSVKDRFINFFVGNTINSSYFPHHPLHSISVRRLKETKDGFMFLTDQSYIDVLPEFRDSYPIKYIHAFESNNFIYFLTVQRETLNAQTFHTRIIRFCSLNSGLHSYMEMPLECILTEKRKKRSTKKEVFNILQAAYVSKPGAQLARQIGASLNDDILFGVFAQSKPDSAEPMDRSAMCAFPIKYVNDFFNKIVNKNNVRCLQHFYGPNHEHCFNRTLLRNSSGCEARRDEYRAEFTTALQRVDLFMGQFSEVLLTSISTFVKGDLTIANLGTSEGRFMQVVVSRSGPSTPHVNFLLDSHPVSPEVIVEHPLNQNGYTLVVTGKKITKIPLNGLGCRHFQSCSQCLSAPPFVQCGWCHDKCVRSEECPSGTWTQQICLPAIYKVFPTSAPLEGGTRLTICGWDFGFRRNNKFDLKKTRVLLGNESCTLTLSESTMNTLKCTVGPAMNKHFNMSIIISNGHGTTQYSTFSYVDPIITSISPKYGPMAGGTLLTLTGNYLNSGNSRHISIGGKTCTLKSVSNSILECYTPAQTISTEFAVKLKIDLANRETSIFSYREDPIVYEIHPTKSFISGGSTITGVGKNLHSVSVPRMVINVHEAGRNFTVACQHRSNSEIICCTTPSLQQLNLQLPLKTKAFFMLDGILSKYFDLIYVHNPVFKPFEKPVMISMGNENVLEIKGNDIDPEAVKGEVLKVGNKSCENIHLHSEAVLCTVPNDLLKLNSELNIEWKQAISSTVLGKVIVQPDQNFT

[6] = biological target: T5, human cMET (recombinant, soluble monomeric) (human, UniProt P08581 25-932); assay: as above
T5 construct: also called cMET antigen; His-tagged cMET antigen
T5 sequence (P08581 25-932): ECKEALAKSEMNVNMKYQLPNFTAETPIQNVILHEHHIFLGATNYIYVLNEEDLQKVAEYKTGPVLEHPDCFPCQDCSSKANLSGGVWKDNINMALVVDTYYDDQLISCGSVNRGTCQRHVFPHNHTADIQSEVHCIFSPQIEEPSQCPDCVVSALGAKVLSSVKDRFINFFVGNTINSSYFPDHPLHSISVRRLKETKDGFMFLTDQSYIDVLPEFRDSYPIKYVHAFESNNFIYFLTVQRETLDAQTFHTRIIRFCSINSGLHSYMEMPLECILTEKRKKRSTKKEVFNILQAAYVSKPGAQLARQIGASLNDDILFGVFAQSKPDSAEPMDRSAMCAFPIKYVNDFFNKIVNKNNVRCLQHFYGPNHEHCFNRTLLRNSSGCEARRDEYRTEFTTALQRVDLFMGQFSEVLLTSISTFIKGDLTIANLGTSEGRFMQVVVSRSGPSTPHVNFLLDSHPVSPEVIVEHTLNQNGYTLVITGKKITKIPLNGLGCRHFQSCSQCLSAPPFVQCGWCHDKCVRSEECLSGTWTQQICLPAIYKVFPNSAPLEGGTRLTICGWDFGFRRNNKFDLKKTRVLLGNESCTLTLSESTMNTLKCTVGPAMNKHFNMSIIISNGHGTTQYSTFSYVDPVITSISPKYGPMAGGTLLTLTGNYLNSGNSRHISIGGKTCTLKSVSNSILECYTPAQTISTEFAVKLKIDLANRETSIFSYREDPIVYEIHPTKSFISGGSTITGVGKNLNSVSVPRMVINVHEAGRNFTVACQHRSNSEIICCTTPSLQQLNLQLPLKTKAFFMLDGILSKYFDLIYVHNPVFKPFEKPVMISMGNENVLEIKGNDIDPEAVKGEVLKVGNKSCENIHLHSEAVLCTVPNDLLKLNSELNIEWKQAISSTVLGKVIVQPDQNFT

mouse cMET (recombinant) = mouse cMET (recombinant) (mouse, UniProt P16056 25-929, limits assumed); assay: as above
Chain of mouse cMET (recombinant) (P16056 25-929 limits assumed): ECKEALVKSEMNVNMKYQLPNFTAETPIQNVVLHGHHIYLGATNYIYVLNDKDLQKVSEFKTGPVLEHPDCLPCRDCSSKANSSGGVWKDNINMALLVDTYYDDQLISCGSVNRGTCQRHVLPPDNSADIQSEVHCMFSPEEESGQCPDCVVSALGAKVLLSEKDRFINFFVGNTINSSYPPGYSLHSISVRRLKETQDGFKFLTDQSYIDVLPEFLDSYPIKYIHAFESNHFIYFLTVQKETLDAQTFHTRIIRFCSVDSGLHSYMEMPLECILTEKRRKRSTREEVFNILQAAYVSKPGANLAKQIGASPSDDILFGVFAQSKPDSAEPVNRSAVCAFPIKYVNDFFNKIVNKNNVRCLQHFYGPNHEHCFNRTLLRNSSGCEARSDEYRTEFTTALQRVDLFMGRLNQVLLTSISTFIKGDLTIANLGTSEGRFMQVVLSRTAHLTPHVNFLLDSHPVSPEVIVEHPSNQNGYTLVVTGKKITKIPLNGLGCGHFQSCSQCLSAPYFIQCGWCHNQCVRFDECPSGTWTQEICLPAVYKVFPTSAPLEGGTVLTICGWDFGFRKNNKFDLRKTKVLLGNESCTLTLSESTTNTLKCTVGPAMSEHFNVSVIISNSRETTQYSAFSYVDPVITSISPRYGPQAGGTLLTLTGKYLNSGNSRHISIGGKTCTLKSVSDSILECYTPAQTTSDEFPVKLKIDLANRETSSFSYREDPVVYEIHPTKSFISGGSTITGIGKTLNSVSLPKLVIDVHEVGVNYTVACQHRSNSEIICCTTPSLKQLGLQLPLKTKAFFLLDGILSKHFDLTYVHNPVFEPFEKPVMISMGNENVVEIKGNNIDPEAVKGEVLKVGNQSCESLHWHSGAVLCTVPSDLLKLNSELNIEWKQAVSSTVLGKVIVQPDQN

Ron (CD136) = biological target: T1, Ron (CD136); assay: ELISA, antigen coated at 1 µg/mL, antibody titrated from 10 µg/mL
Procedure: (§2) Specificity for EGFR and cMET species paralogs and closely related family members was determined by ELISA. Briefly, antigen solutions were prepared in PBS at 1 μg/mL and 50 microliters was coated onto half area ELISA assay plates. Plates were washed and blocked with 1% BSA in PBS containing 0.005% Tween-20 (PBS-T) for one hour at room temperature. […] Wells were incubated with 50 microliters of the indicated primary antibodies diluted in PBS-T in a 1:3 dilution series, starting at 10 μg/mL and ending at 0.002 μg/mL, except for the HER4 binding mAb control, MAB1131, for which the series started at 1 μg/mL. The wells were washed 4 times in PBS-T, then 50 μl of goat anti-human Fab HRP-labeled secondary antibody, diluted 1:5000 in PBS-T, was added to each well and incubated for one hour at room temperature. […] 50 microliters of TMB stop solution was added to all wells and the absorbance was read at 450 nm on a SpectraMax M5 microplate reader. Data were analyzed in the SoftMax Pro 5 software and plotted using GraphPad Prism 7 graphing software.
(§3) To determine the species cross reactivity, ELISA assays were carried out as described above.

Semaphorin 3a = biological target: T2, Semaphorin 3a; assay: as above
Procedure: as §2, §3

mouse EGFR (recombinant) = biological target: T6, mouse EGFR (recombinant) (mouse, UniProt Q01279 25-647); assay: SPR (BIAcore T200), antibody captured on anti-human IgG, soluble antigen as analyte
T6 construct: also called murine EGFR

[7] = biological target: T7, cynomolgus monkey EGFR (recombinant, soluble monomeric) (cynomolgus monkey, UniProt P55245 25-645 (rhesus entry)); assay: as above
T7 construct: also called cyno EGFR

[8] = biological target: T8, human EGFR (recombinant, soluble monomeric) (human, UniProt P00533 25-645); assay: as above
T8 construct: also called EGFR antigen

| Binder | Kd [1] | Kd [2] | Kd [3] | Kd [4] | binding result [5] | binding result [6] | binding result (mouse cMET (recombinant)) | binding result (Ron (CD136)) | binding result (Semaphorin 3a) | binding result (mouse EGFR (recombinant)) | binding result [7] | binding result [8] |
| --- | --- | --- | --- | --- | --- | --- | --- | --- | --- | --- | --- | --- |
| B1 | ~9.9 nM | ~15.5 nM | ~5.7 nM | ~6 nM |  |  |  |  |  |  |  |  |
| B2 |  |  |  |  | no binding (tested: 200 nM) | no binding (tested: 200 nM) | no binding (tested: 200 nM) | no binding (tested: 10 µg/mL) | no binding (tested: 10 µg/mL) |  |  |  |
| B3 |  |  |  |  |  |  | no binding (tested: 200 nM) | no binding (tested: 10 µg/mL) | no binding (tested: 10 µg/mL) | no binding (tested: 200 nM) | no binding (tested: 200 nM) | no binding (tested: 200 nM) |
